The results in this text go back to PMC10263302.

This test has as its target Complex IV (cytochrome c oxidase complex) of T. gondii (Toxoplasma gondii | Toxoplasma gondii (endogenous in the parasites)). As to the kind of experiment: native gel or EMSA. Background: A gel shift assay detects complexes by their altered migration in electrophoresis.

On to cFLAG-TgApiCox13^H49Q (natural protein), for which the reduction of the abundance of the complex against the cWT-containing complex (no ATc) was 75%.

As to cFLAG-TgApiCox13^H85Q (natural protein), the reduction of the abundance of the complex against the cWT-containing complex (no ATc) was found to be 45%.
